This passage reports fold reduction of the binding affinity against the wild type and stoichiometry N results from PMC3077455.

Where two headings read alike, the source gives them in different places.

Assay [1] deals with single chain Cse4-H4 (His6-KK-Cse4_(151–207)-LVPRGS-H4_(45–103)) (budding yeast | not stated) (UniProt P36012). Description: ITC. On the technique in general: Isothermal titration calorimetry measures the heat released or taken up as one component is titrated into another.
Assay [2] addresses Cse4 150-229 (sedimentation sample) (budding yeast) (UniProt P36012). Description: AUC.
Assay [3] shares this target. Description: AUC. This is another data set of the same source.

Scm3 84-169, sequence (Q12334 84-169): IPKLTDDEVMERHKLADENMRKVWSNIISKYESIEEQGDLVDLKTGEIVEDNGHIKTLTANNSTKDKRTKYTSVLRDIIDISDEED

As for “Scm3 Ile110Asp/Ile117Asn (from UniProt Q12334 83-169) (domain or fragment)”, the fold reduction of the binding affinity against the wild type in assay [1] was 85 fold.

As for “histone H4, full length (from UniProt P02309 1-103) (natural protein)”, the stoichiometry N in assay [2] and in assay [3] was 1 throughout.

For “Scm3 84-169 (from UniProt Q12334 84-169) (domain or fragment)”, the stoichiometry N in assay [2] and in assay [3] was 1 in each case.

For orientation: stoichiometry N means a count of units in the complex or per binding partner.
